B1: PRO2206 (bispecific antibody, human IgG4 S228P, kappa)
light: DIQMTQSPSSLSARVGDRVTITCQASEDIESYLAWYQQKPGKAPKLLIYRASTLAYGVPSRFSGSGSGRDFTLTISSLQPEDFATYYCLGSSYSTGSNIFGQGTKVEIKRTVAAPSVFIFPPSDEQLKSGTASVVCLLNNFYPREAKVQWKVDNALQSGNSQESVTEQDSKDSTYSLSSTLTLSKADYEKHKVYACEVTHQGLSSPVTKSFNRGECGGGGSGGGGSAFQLTQSPSSLSASVGDRVTITCQASQSIDSWLAWYQQKPGKPPKLLIYQASKLASGVPSRFSGSGSGTDYTLTISSLQPEDFATYYCQTYYGGGHIGWGFGTGTKVTVLGGGGGSGGGGSGGGGSGGGGSQSQLVESGGGRVQPGGSLRLSCAASGFSFSANYWICWVRQAPGKGLEWIVCIYIGSRADTYYAPWAKGRFTISKDNSKNTVYLQMNSLRAEDTATYFCARFSSGIYDLDRFFLWGQGTQVTVSS
heavy: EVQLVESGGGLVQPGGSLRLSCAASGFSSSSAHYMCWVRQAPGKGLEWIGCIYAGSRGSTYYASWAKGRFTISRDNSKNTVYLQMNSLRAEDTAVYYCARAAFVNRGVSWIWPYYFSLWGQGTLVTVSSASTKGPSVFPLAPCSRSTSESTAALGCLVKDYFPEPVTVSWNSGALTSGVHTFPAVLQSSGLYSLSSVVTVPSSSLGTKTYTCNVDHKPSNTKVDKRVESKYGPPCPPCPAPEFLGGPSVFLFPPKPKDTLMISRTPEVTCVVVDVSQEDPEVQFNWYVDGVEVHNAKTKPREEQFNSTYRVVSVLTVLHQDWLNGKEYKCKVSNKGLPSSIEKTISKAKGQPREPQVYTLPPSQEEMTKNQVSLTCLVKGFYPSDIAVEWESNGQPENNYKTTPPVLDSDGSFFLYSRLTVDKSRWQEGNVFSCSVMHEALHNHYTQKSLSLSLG
notes: IgG4 (S228P) Morrison-L, anti-IL-31 scFv on the C-terminus of the light chain; also called Morrison-L; MorrL
B2: PRO2207 (bispecific antibody, human IgG4 S228P, kappa)
light: DIQMTQSPSSLSASVGDRVTITCQASEDIESYLAWYQQKPGKAPKLLIYRASTLAYGVPSRFSGSGSGTDFTLTISSLQPEDFATYYCLGSSYSTGSNIFGQGTKVEIKRTVAAPSVFIFPPSDEQLKSGTASVVCLLNNFYPREAKVQWKVDNALQSGNSQESVTEQDSKDSTYSLSSTLTLSKADYEKHKVYACEVTHQGLSSPVTKSFNRGECGGGGSGGGGSAFQLTQSPSSLSASVGDRVTITCQASQSIDSWLAWYQQKPGKPPKLLIYQASKLASGVPSRFSGSGSGTDYTLTISSLQPEDFATYYCQTYYGGGHIGWGFGTGTKVTVLGGGGGSGGGGSGGGGSGGGGSQSQLVESGGGRVQPGGSLRLSCAASGFSFSANYWICWVRQAPGKGLEWIVCIYIGSRADTYYAPWAKGRFTISKDNSKNTVYLQMNSLRAEDTATYFCARFSSGIYDLDRFFLWGQGTQVTVSS
heavy: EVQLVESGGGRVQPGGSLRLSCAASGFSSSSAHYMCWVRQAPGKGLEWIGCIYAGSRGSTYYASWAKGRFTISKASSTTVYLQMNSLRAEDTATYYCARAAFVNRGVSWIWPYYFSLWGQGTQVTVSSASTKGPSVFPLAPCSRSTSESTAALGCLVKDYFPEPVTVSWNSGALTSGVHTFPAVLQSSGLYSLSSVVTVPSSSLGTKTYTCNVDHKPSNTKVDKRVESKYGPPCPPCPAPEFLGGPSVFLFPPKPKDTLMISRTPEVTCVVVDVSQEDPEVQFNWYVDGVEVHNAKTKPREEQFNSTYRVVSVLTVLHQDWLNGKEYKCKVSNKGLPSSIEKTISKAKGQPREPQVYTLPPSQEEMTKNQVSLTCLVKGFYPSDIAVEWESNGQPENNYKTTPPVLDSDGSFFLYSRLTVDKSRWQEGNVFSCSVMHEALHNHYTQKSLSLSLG
notes: IgG4 (S228P) Morrison-L; also called Morrison-L; MorrL
B3: PRO1900 (scFv, V domains shown)
VH: QSQLVESGGGRVQPGGSLRLSCAASGFSFSANYWICWVRQAPGKGLEWIVCIYIGSRADTYYAPWAKGRFTISKDNSKNTVYLQMNSLRAEDTATYFCARFSSGIYDLDRFFLWGQGTQVTVSS
V domain: AFQLTQSPSSLSASVGDRVTITCQASQSIDSWLAWYQQKPGKPPKLLIYQASKLASGVPSRFSGSGSGTDYTLTISSLQPEDFATYYCQTYYGGGHIGWGFGTGTKVTV
notes: anti-IL-31 scFv; VL entry ends with LCDR3 (no FR4); also called 50-09-D07-sc04
B4: PRO1903 (scFv, V domains shown)
VH: QSQLVESGGGLVQPGGSLRLSCAASGFSFSANYWICWVRQAPGKGLEWIVCIYIGSRADTYYAPWAKGRFTISKDNSKNTVYLQMNSLRAEDTAVYFCARFSSGIYDLDRFFLWGQGTLVTVSS
V domain: AFQLTQSPSSLSASVGDRVTITCQASQSIESWLAWYQQKPGKPPKLLIYQASKLASGVPSRFSGSGSGTDYTLTISSLQPEDFATYYCQTYYGGGHIGWGFGTGTKVTV
notes: anti-IL-31 scFv (VL D32E against sc03); Printed VL entry has no FR4; also called 50-09-D07-sc07

What was measured:
[1] = molecular target: T1, human IL-4R on cells (HEK-Blue IL-4/IL-13 cells, human PBMC, human whole blood) (human, UniProt P24394 26-825); test: cell-based or functional assay
[2] = molecular target: T2, cynomolgus IL-4R on transfected HEK293T cells (cynomolgus monkey, UniProt A0A2K5V580 33-832); test: flow cytometry, transfected HEK293T cells
T2 construct: whole, on cells; also called cynomolgus IL-4R-expressing HEK293T cells; not shown: V5 Tag fused to the N-terminus of the expression construct
T2 sequence (A0A2K5V580 entry or part of it): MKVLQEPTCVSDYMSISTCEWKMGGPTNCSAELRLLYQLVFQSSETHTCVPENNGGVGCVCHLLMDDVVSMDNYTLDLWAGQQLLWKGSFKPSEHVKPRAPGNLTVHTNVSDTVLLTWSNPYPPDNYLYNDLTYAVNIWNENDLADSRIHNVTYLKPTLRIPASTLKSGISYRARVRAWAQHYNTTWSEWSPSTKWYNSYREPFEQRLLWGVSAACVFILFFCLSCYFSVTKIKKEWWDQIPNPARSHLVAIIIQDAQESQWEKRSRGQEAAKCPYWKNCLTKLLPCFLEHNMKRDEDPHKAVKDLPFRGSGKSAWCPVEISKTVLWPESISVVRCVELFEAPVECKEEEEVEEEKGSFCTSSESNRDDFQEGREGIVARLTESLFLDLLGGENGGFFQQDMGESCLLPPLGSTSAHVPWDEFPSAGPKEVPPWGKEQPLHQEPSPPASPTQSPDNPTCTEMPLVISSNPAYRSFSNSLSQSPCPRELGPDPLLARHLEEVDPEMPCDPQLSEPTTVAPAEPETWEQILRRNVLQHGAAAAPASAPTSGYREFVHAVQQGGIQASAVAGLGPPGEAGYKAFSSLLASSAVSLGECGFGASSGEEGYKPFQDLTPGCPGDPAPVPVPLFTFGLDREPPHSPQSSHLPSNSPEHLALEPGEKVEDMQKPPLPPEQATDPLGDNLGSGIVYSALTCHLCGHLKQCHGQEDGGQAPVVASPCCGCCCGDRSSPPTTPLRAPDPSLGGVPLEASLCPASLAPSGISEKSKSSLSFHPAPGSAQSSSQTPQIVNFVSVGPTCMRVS
From the text: (§1) To test binding of the Morrison-H and Morrison-L antibodies PRO2198, PRO2199, PRO2206 and PRO2207 to human or cynomolgus IL-4R-expressing HEK293T cells, HEK293T cells were transfected with human and cynomolgus IL-4R plasmids and mock plasmid using Lipofectamine3000. Binding of an antibody targeting V5 Tag, which is fused to the N-terminus of human and cynomolgus IL-4R expression constructs, would confirm successful expression of both targets and was thus used as a positive control for plasma membranous binding. The Morrison-H molecule PRO2077 was used as negative control for cynomolgus IL-4R binding since this molecule had not shown any cross-reactivity to cynomolgus IL-4R (see section 5.3.).
(§2) 50,000 transfected HEK293T cells per well were seeded in a 96-well plate. 5-fold serial dilutions of the Morrison-H and Morrison-L antibodies PRO2198, PRO2199, PRO2206 and PRO2207 and of the control molecule PRO2077, which is not cross-reactive to cynomolgus IL-4R, were added at concentrations ranging from 5,000 to 0.32 ng/ml to the plates and incubated for 60 min at 4° C. on a shaker. Supernatants were removed and detection reagent was added for flow cytometry analysis. The geometric mean of the APC fluorescence intensity of single cells was calculated.

[3] = molecular target: T3, human IL-4R on transfected HEK293T cells (human, UniProt P24394 26-825); test: flow cytometry, transfected HEK293T cells
T3 construct: whole, on cells; also called human IL-4R-expressing HEK293T cells; not shown: V5 Tag fused to the N-terminus of the expression construct
From the text: as §1, §2

[4] = molecular target: T4, recombinant human IL-31 protein (Peprotech) (human, UniProt Q6EBC2 24-164); test: SPR, Morrison captured on immobilized human IL-4R-Fc, IL-31 analyte, single-cycle
T4 construct: also called hIL-31
T4 sequence (looked up): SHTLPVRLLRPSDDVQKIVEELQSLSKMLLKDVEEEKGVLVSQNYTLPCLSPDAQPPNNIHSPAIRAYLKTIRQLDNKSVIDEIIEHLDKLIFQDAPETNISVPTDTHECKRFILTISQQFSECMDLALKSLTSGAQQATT
Description: (§3) Binding kinetics (including affinity) of the bispecific Morrison-H (PRO2198, PRO2199) and Morrison-L (PRO2206, PRO2207) molecules to recombinant human IL-31 protein (Peprotech) were determined by SPR analysis on a T200 device (Biacore, Cytiva). In this SPR experiment, Morrison antibodies were injected over a carboxylmethylated dextran surface (CM5 sensorchip; Biacore, Cytiva) immobilized with human recombinant IL-4R protein (ECD with Fc Tag, R&D Systems) and a titration series of human IL-31 was injected as analyte. […] The calculation of the kinetics and the apparent dissociation equilibrium constant (KD) as well as the measurement for the quality of curve fitting were done as described above for IL-4R. The binding level was calculated as the maximum stability binding achieved normalized to the theoretical Rmax. Cross-reactivity to cynomolgus monkey IL-31 was measured using the same setup as for the analysis of human IL-31 affinities, with the difference that recombinant cynomolgus monkey IL-31 (ECD with His Tag, Sino Biological) protein was used as analytes instead of human IL-31.
(§4) After having shown a stable capture of Morrison antibodies via recombinant human IL-4R protein, IL-31 was injected as analyte and the kinetics of the binding of IL-31 to captured Morrison molecules were calculated.

[5] = molecular target: T5, recombinant cynomolgus monkey IL-31 (ECD with His Tag, Sino Biological) (cynomolgus monkey); test: as above
T5 construct: manufactured on demand by Sino Biological; also called cynomolgus IL-31-His; cyno IL-31
Description: as §3, §4

[6] = molecular target: T4, recombinant human IL-31 protein …; test: cell-based or functional assay
[7] = molecular target: T1, human IL-4R on cells (HEK-Blue …); test: cell-based or functional assay; remark: listed apart in the source
[8] = molecular target: T1, human IL-4R on cells (HEK-Blue …); test: cell-based or functional assay; remark: listed apart in the source
[9] = molecular target: T6, recombinant human IL-4R protein (ECD with His Tag, Sino Biological) (human, UniProt P24394 26-232); test: SPR, Morrison captured via anti-human IgG-Fc, IL-4R ECD-His analyte
T6 construct: extracellular domain; bought; also called human IL-4R ECD; not shown: His Tag
Description: (§5) Binding kinetics (including affinity) of the bispecific Morrison-H (PRO2198, PRO2199) and Morrison-L (PRO2206, PRO2207) molecules to recombinant human IL-4R protein (ECD with His Tag, Sino Biological) were determined by SPR analysis on a T200 device (Biacore, Cytiva). In this SPR experiment, Morrison molecules were captured via an anti-human IgG-Fc antibody (Human Antibody Capture Kit; Biacore, Cytiva) covalently immobilized to a carboxylmethylated dextran surface (CM5 sensorchip; Biacore, Cytiva) and a titration series of human IL-4R ECD was injected as analyte. After each analyte injection cycle, the sensor chip was regenerated (MgCl₂), and new Morrison antibody was subsequently re-captured. […] The apparent dissociation (kd) and association (kₐ) rate constants and the apparent dissociation equilibrium constant (KD) were calculated with the Biacore analysis software (Biacore Evaluation software Version 3.2, Cytiva) using one-to-one Langmuir binding model and quality of the fits was monitored based on Chi2 and U-value, which are measures for the quality of the curve fitting. The binding level was calculated as the maximum stability binding achieved normalized to the theoretical Rmax. Cross-reactivity to cynomolgus monkey IL-4R was measured using the same setup as for the analysis of human IL-4R kinetics, with the difference that recombinant cynomolgus monkey IL-4R (ECD with His-tag, Acro Biosystems) protein was used as analyte instead of human IL-4R.

[10] = molecular target: T7, recombinant cynomolgus monkey IL-4R (ECD with His-tag, Acro Biosystems) (cynomolgus monkey, UniProt A0A2K5V556 26-232); test: as above
T7 construct: bought; also called cynomolgus IL-4R
T7 sequence (A0A2K5V556 entry or part of it limits assumed): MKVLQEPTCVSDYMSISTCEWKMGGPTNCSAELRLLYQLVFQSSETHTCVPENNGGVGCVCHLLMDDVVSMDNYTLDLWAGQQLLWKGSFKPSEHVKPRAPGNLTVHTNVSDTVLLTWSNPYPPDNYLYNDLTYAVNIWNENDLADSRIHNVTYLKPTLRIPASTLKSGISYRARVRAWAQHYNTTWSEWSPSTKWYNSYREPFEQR
Description: as §5

[11] = molecular target: T8, human IL-31-His (human, UniProt Q6EBC2 24-164); test: SPR, IL-31-His captured, scFv analyte (30 and 10 nM)
T8 construct: captured via an anti-His tag antibody; also called human IL-31 (scFv SPR); not shown: His tag
T8 sequence (looked up): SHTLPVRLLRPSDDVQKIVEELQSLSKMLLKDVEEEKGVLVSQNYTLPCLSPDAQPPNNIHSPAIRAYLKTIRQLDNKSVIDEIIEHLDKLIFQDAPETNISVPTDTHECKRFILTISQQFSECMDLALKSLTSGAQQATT
Description: Affinity of the two humanized scFvs to human and cynomolgus IL-31 was determined by SPR analysis on a T200 device (Biacore, GE Healthcare). Cynomolgus IL-31 was manufactured on demand by Sino Biological since it was not available commercially. Human and cynomolgus IL-31-His was captured via an anti-His tag antibody coupled to a carboxylmethylated dextran surface and the scFvs were injected as analyte. After each analyte injection cycle the sensor chip was regenerated and new antigen was captured. The scFvs were measured using a dose response multi-cycle kinetic assay in a high-throughput mode with two concentrations (30 and 10 nM) diluted in running buffer. Obtained sensorgrams were fitted using a 1:1 binding model.
Affinity of PRO1643 and of the optimized anti-IL-31 scFvs to human IL-31 was determined by SPR analysis on a T200 device (Biacore, GE Healthcare), as described above in section 2.2.2. The scFvs were measured using a dose response multi-cycle kinetic assay in a high-throughput mode with two concentrations (30 and 10 nM) diluted in running buffer. Obtained sensorgrams were fitted using a 1:1 binding model.

| IC50 (single analysis), human IL-13-induced signaling, stat-6 reporter gene assay [1] [pM] | EC50 [2] [nM] | EC50 [3] [nM] | Kd [4] [nM] | koff [4] [s⁻¹] | kon [4] [M⁻¹ s⁻¹] | Kd [5] [nM] | koff [5] [s⁻¹] | kon [5] [M⁻¹ s⁻¹] | IC50 (single analysis), human IL-31-induced signaling, IL-31RA/OSMR dimerization assay [6] [pM] | IC50, IL-4-induced CD23 expression, memory B cells [7] [pM] | IC50, IL-4-induced CD23 expression, naive B cells [7] [pM] | IC50 (single analysis), human IL-4-induced signaling, stat-6 reporter gene assay [8] [pM] | Kd [9] [nM] | koff [9] [s⁻¹] | kon [9] [M⁻¹ s⁻¹] | Kd [10] [nM] | koff [10] [s⁻¹] | kon [10] [M⁻¹ s⁻¹] | Kd [11] [nM] | also measured | Binder |
| --- | --- | --- | --- | --- | --- | --- | --- | --- | --- | --- | --- | --- | --- | --- | --- | --- | --- | --- | --- | --- | --- |
| 29.5 | 0.9 | 0.83 | 0.107 | 2.36e-05 | 220000 | 0.169 | < 1e-05 | 59300 | 230 | 4340 | 1480 | 11.8 | 0.0477 | 1.95e-05 | 409000 | 0.209 | 2.42e-05 | 116000 |  | IC50, IL-4-induced CD23 expression, monocytes (blood donor 2) [7]: 110 pM | B1 |
| 12.6 | 0.65 | 0.6 | 0.152 | 2.47e-05 | 163000 | 0.164 | < 1e-05 | 60900 | 215 | 1580 | 1040 | 9.4 | 0.189 | 4.61e-05 | 244000 | 0.011 | 2.77e-05 | 2.53e+06 |  | IC50, IL-4-induced CD23 expression, monocytes (blood donor 3) [7]: ~54.5 pM | B2 |
|  |  |  |  |  |  |  |  |  |  |  |  |  |  |  |  |  |  |  | 0.907 | koff [11]: 0.000599 s⁻¹; kon [11]: 661000 M⁻¹ s⁻¹ | B3 |
|  |  |  |  |  |  |  |  |  |  |  |  |  |  |  |  |  |  |  | 1.22 | koff [11]: 0.000638 s⁻¹; kon [11]: 524000 M⁻¹ s⁻¹ | B4 |

Reference: patent US20250282879A1 (CILAG GMBH INTERNATIONAL, published 2025)
